B1: minF1; the commonest letter at each place (parent)
chain: GAGACCGCAACTGAAAAGTTGTTATCAGAAATGGATGGGTTGAATTTCTGCACGTAGAAGCAAAAGGC

Variants of: B1
Assay: fraction ligated after 30 min (ligated reads / total reads); higher = more ligase activity
Details: with F1*subA RNA substrate (template-directed ligation), 42 °C
How it was run: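 Using barcoded primers for reverse transcription and a MiSeq for sequencing, gel-separated ligated and unligated RNAs of minimized ligase ribozyme variants were read, with core-base filtering at quality ≥30. Fraction ligated per variant was defined as ligated reads over total reads.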

Point of comparison: G28A A31T, fraction ligated 0.821. Against it:
- A43G A44T — lower, 0.00618
- T25C A44T — lower, 0.0143
- T25C T32C — lower, 0.00341
- G28C A43G — lower, 0.0597
- T36G G37A — lower, 0.00776
- A24T A31C — lower, 0.00611
- T25G A35T — lower, 0.396
- G28C A35C — lower, 0.0372
- T25A T36G — lower, 0.0106
- C26T G42C — lower, 0.00245
- A27G G42T — lower, 0.16
- G34A G42C — lower, 0.00302
- G42A A43T A44C — lower, 0.00312
- A30G G34A — lower, 0.0439
- G37C A43G — lower, 0.00302
- A24T G33T — lower, 0.0124
- G28A A31C — lower, 0.802
- T32G G34C — lower, 0.00552
- T32G G34A — lower, 0.0029
- G42T A44T — lower, 0.0246
- C26A T32C — lower, 0.0036
- A24G A31T — lower, 0.0427
- G28A A35C — lower, 0.0346
- G34T T36A — lower, 0.00722
- G28C A30C — lower, 0.817
- A43C — lower, 0.115
- A30T T32A — lower, 0.0346
- A30T T32G — lower, 0.0154
- A27T T36G — lower, 0.16
- A27T T36C — lower, 0.0659
- A31G G34A — lower, 0.0934
- G34T G37T — lower, 0.00356
- G34T G37C — lower, 0.00496
- G33C G37T — lower, 0.01
- T25C A43T — lower, 0.00508
- G34C G37C — lower, 0.00307
- G28T A44C — lower, 0.685
- G33T A44G — lower, 0.249
- G33T A44T — lower, 0.299
- A27G A29T — lower, 0.808
- A30G T32C — lower, 0.0409
- A30T G37A — lower, 0.00958
- G42A A43C — lower, 0.0101
- G42A A43G — lower, 0.0596
- C26T G34A — lower, 0.623
- C26T G34C — lower, 0.00303
- C26T A30T — lower, 0.339
- C26A G34A — lower, 0.0394
- T23G — lower, 0.8
- G28A A30T — lower, 0.814
- C26T T36G — lower, 0.0188
- A27C T32A — lower, 0.0275
- G28T A31C — lower, 0.82
- T36A A44T — lower, 0.012
- T32A A35C — lower, 0.00546
- A30C A44C — lower, 0.565
- A30C A44T — lower, 0.703
- G42C A43G — lower, 0.0762
- T25C G34C — lower, 0.00188
- G28C G42C — lower, 0.0102
- T23A G42T — lower, 0.003
- T25C G33C — lower, 0.0119
- A29T A30C — lower, 0.806
- A35C G37C — lower, 0.00352
- A29T — lower, 0.815
- A27T G42T — lower, 0.444
- G33T A43G — lower, 0.0169
- G33T A43C — lower, 0.0254
- A29C G42A — lower, 0.283
- T23A A35C — lower, 0.00609
- G33A A44T — lower, 0.553
- A24G T25C — lower, 0.01
- A31C A35C — lower, 0.0149
- C26G T36A — lower, 0.00192
- C26A — lower, 0.121
- T32A G33A — lower, 0.032
- A30G G37C — lower, 0.00443
- A24G A30C — lower, 0.0534
- T32A G34C — lower, 0.0031
- G34T A35C — lower, 0.00324
- C26T A44C — lower, 0.091
- T23G A27C — lower, 0.714
- A24T G34C — lower, 0.00388
- A27T A35G — lower, 0.384
- T25G A31T — lower, 0.0111
- G33T T36C — lower, 0.0104
- T25C C26G — lower, 0.00975
- A24T G28A — lower, 0.0366
- G28A G33C — lower, 0.719
- G42C — lower, 0.0127
- A24T A44C — lower, 0.00276
- T25A A35T — lower, 0.458
- G28C A29T A30T A31T — lower, 0.752
- T25G A27C — lower, 0.0754
- C26G G42C — lower, 0.00152
- A27C T36A — lower, 0.0988
- A27C T36C — lower, 0.0483
- A27C A31C — lower, 0.421
- A27C A29G — lower, 0.61
- T23G A35C — lower, 0.0185
- A31G A44T — lower, 0.804
- A31C T36A — lower, 0.0194
- A29T A43T — lower, 0.0859
- T23G G37T — lower, 0.00959
- A29G G42C — lower, 0.00737
- A29G G42T — lower, 0.096
- T25G G33A — lower, 0.0162
- A24G T36G — lower, 0.00746
- T36A A43C — lower, 0.0049
- T36A A43T — lower, 0.00522
- A35T T36C — lower, 0.00257
- G33A G37A — lower, 0.00769
- A24C G37A — lower, 0.00687
- A24C G37C — lower, 0.00569
- T32C T36C — lower, 0.00318
- G33A A35T — lower, 0.0202
- T25G T32C — lower, 0.00349
- A31G — lower, 0.805
- A24C G34T — lower, 0.00294
- A24G A35T — lower, 0.00297
- G33T G42C — lower, 0.0103
- A29T G42T — lower, 0.0835
- A29T G42C — lower, 0.00612
- A30T G42C — lower, 0.00805
- A24C A29G — lower, 0.0302
- G28T G37C — lower, 0.00638
- G28C A44G — lower, 0.674
- G34C A44C — lower, 0.00339
- G42A A43C A44C — lower, 0.00102
- C26A G42T — lower, 0.00182
- G28A A43C — lower, 0.0816
- G42C A43T A44G — lower, 0.0022
- G28T G42C — lower, 0.017
- A29C T32A — lower, 0.0419
- T23G G34A — lower, 0.0854
- A29G T32C — lower, 0.0215
- C26A A30G — lower, 0.216
- A27G G34A — lower, 0.207
- A27G G34C — lower, 0.00194
- A27G A31C — lower, 0.802
- A31G T36A — lower, 0.0331
- A30C T36A — lower, 0.0266
- A29C G33A — lower, 0.784
- A27C G42A — lower, 0.171
- A24T T25G — lower, 0.00899
- T23G T25A — lower, 0.0923
- C26A A31G — lower, 0.102
- C26A A31T — lower, 0.0701
- T23A G34T — lower, 0.00436
- A27G T36G — lower, 0.0614
- G33C A44C — lower, 0.383
- T25G A43T — lower, 0.00824
- G33A A43G — lower, 0.0533
- C26G A35G — lower, 0.00566
- A29T A31G — lower, 0.811
- A29T A31C — lower, 0.798
- T25A A30C — lower, 0.0114
- T25C G37T — lower, 0.00523
- G28T A35G — lower, 0.437
- A24C A35T — lower, 0.00376
- G34T A44G — lower, 0.00592
- T41G — lower, 0.146
- T25A A31C — lower, 0.00883
- G28C T32A — lower, 0.0353
- G28C T32C — lower, 0.0192
- G28T T36A — lower, 0.0434
